Measured values from the supplement of paper PMC9170038.

System: MS2 coat protein
Experiment: apparent KD of MS2 coat protein; designed switch direction (-1 OFF switch, 1 ON switch): -1; higher = weaker reporter binding
Method in brief: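 SNAP-549-labelled MS2 coat protein was titrated, doubling from 0.7 or 1.5 nM to 3 µM, over designed RNA switches transcribed on Illumina chips by stalled E. coli RNA polymerase. Runs were done without input, with 200 uM small-molecule ligand, or with an oligonucleotide input. Apparent KD is the per-design median over clusters of curve-fitted normalised fluorescence.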

[1] = Eterna round: R95, input ligand: FMN 200 uM
[2] = Eterna round: R95, input ligand: microRNA oligo, concentration not stated
[3] = Eterna round: R95, input ligand: none
[4] = input ligand: microRNA oligo, concentration not stated

Row | Sequence | apparent KD of MS2 coat protein [1] [nM] | apparent KD of MS2 coat protein [2] [nM] | apparent KD of MS2 coat protein [3] [nM] | apparent KD of MS2 coat protein (input ligand: FMN 200 uM) [nM] | apparent KD of MS2 coat protein [4] [nM] | apparent KD of MS2 coat protein (input ligand: none) [nM]
1 | GCUCGUACGGAGGAUAUAGAUUUCGGAAACCGACUAGAAGGCCGAACAUGAGGAUCACCCAUGUGAUUUAUAUC [Gesozarequ] (puzzle: Exclusion 6) | 23.2 | 18.9 | 23.4 | – | – | –
2 | GCAAAUCAUGUAGGAUAUGCGUGGCGAAGCUAUGCAGAAGGACAUGAGGAUCACCCAUGUGCUUCCGUCUGCGUACAGACGGUA [Mat - Exclusion NG 1 - Mod of JL - D18] (Eterna round: R96, puzzle: Exclusion NG 1) | – | – | – | 93.5 | 73.4 | 91.3
3 | UAAACAUGGAUAUAACAGUACAUGAGGAUCACCCAUGUUAAUAUGAUAGAUUAUAACAAGUUUUUUUGUCGUCUUAA [Tabletop] (Eterna round: R97, puzzle: Sensor, turn-off variant 1) | – | – | – | 85 | – | 88
4 | GAUCAUGCAGGAUAUACAUGGACCAUGAAAACAUGGUUUUCACAUGAGGAUCACCCAUGUAGAAGGGCAUGAUC [Omei Ex2 A8] (Eterna round: R97, puzzle: Exclusion 2) | – | – | – | 275 | – | 1400
5 | ACAAGCUAAAUCAUAUCUUACAUGAGGAUCACCCAUGUUUUUGCAAUUAUGUUUGGCCUCCUUUGUGCUCGUCUUAU [JR_STOV1_Sub051] (Eterna round: R97, puzzle: Sensor, turn-off variant 1) | – | – | – | 16.4 | – | 16.7
6 | CCUCUUGGGCAAGGAUAUCCUGUGCGGUUCCGGCUCGUGUCUGUCACAUGAGGAUCACCCAUGUGGGAGAAGGUGCCUGCGGUC [Design 80] (Eterna round: R96, puzzle: Exclusion NG 2) | – | – | – | 13 | 10.7 | 16.3
7 | ACAUGAGGAUCACCCAUGUGAAAACAAUGGCUGACUUUGAGACAGGAUAUAGGUGCAUAUCAAACCUAGAAGGGUCAUUACUGG [Deportation 93 - Jieux - Exclusion NG 3] (Eterna round: R96, puzzle: Exclusion NG 3) | – | – | – | 43.5 | 31.6 | 38.2
8 | GCCGAAAGUGUGAGGAUAUACCUAUGGAUACAUAGGUAGAAGGCACAUGAGGAUCACCCAUGUGUCCAAACGGC [Eli bmx4 4.23] (Eterna round: R97, puzzle: Brourd's mod of Exclusion 4) | – | – | – | 54 | – | 21.7
9 | GCAGCAUAGAUUACUAGCUGUUACAUGAGGAUCACCCAUGUUCAGGAUAUGGUCUGGAUUACAGGCCAGAAGGGAACAAGCUGC [finally!] (Eterna round: R96, puzzle: Exclusion NG 3) | – | – | – | 14.2 | 12.9 | 16.6
10 | AGUAACUAUCACGAAAGUGAUAGUUACAAUAGCAAGUGAACAUGAGGAUCACCCAUGUCCUCAUUUGCUCGUCUUAU [Sensor 3 - 20] (puzzle: Sensor v3, turn-off variant 2) | 16.1 | 632 | 13.6 | – | – | –
11 | CUUAAACAUGAGGAUCACCCAUGUCAGGAUAUGAUACUAUGUACUUCGGUACAUAGUAUCAGAAGGGAUAUGAA [Ex1-3: 64] (puzzle: Exclusion 1) | – | 43.1 | – | – | – | –
12 | AUUCAGCGAGGAUAUACAGGUUCUGGGUGAGGCUCGGCGAGACAUGAGGAUCACCCAUGUAGAAGGUGCUAGCC [Rezalaes] (puzzle: Exclusion 2) | – | 277 | – | – | – | –
13 | AAACUGAGGCUUUGCUUUAGUCGUACAUGAGGAUCACCCAUGUAGGAUAUGGUAGGCUUUGCUUACCAGAAGGACAGAGUGAUC [JL EXNG3 1.20] (Eterna round: R96, puzzle: Exclusion NG 3) | – | – | – | 80.5 | 404 | 279
14 | AAUUUACAUGAGGAUCACCCAUGUGAGGAUAUGGAUUCGCUGGCCGUAGCCAGUGGAUCCAGAAGGCGCAUGAU [JL-ex1-4.12] (Eterna round: R97, puzzle: Exclusion 1) | – | – | – | 402 | – | 94.8
15 | CUCCGACAUGAGGAUCACCCAUGUUAGGAUAUCCCACGCAGGUAGUGAGAGAAUCUGUGGAGAAGGAGCAGGGU [Eternabot (L2) Solution 74] (Eterna round: R97, puzzle: Exclusion 1) | – | – | – | 21.9 | – | 24.5
16 | AAAUCGAGACGGAGAUCCGACAUGAGGAUCACCCAUGUCUCGUAAGCUUUUUGCUCGUCUUAUACUCCUCUGUUCUC [Elimod 50 - Jieux - Sensor, turn-off variant 1] (Eterna round: R97, puzzle: Sensor, turn-off variant 1) | – | – | – | 22.5 | – | 22.4
17 | ACCAGUAUAUGGAGAUUUUACAUGAGGAUCACCCAUGUUGGGACAGCUUUUUGCUUGUCUUAUCCUACUUUGUGUGU [Design #3] (Eterna round: R97, puzzle: Sensor, turn-off variant 1) | – | – | – | 32.2 | – | 36

Row | Sequence | apparent KD of MS2 coat protein [1] [nM] | apparent KD of MS2 coat protein [2] [nM] | apparent KD of MS2 coat protein [3] [nM] | apparent KD of MS2 coat protein (input ligand: FMN 200 uM) [nM] | apparent KD of MS2 coat protein [4] [nM] | apparent KD of MS2 coat protein (input ligand: none) [nM]
18 | GAUCCACAUGAGGAUCACCCAUGUUAGGAUAUGACAACGACUCGCACUACGUUGUUGCUCAGAAGGAGCACCCA [Eternabot (Original) Solution 10] (Eterna round: R97, puzzle: Exclusion 1) | – | – | – | 19.1 | – | 18.3
19 | ACAGCUAAUCUGCUCGUCUACAUGAGGAUCACCCAUGUCAUGGUCCACCUAAGAGUCAGUUACCCAAGUGAUAUUCG [Eternabot (L1) Solution 29] (Eterna round: R97, puzzle: Sensor, turn-off variant 1) | – | – | – | 204 | – | 224
20 | CCACUGUCAGGAUAUCGUGCAUACAACGAAAGUUCUAUGUGCGAGAAGGGACAUGAGGAUCACCCAUGUAAACG [Omei Ex4 A28] (Eterna round: R97, puzzle: Exclusion 4) | – | – | – | 582 | – | 138
21 | UUUUUAUAUGAAGGAUAUACUUAACAUGAGGAUCACCCAUGUGGUGUUGUGAGUGAGUGAGUUUAGUAGAAGGUCAUUUCUUUU [JMF's solution 78] (Eterna round: R96, puzzle: Exclusion NG 2) | – | – | – | 440 | 411 | 462
22 | AGUAGUUGUUUCCGUUCUUACAUGAGGAUCACCCAUGUUUCUUGUCGUGCUCGCGUUGCUCGUCAGACUACCAGUUG [salish99_TOv1_r3_061] (puzzle: Sensor v3, turn-off variant 1) | 62.4 | 73.7 | 87.6 | – | – | –
23 | UUUUUCAGGCCAGAUCCUCACAUGAGGAUCACCCAUGUGCUCGUCUGUUUUCGCUCUUUCUUUUUUUUGGUUGUGCU [Level Boss var2-18] (puzzle: Sensor v3, turn-off variant 1) | 174 | 31.2 | 259 | – | – | –
24 | ACAUGAGGAUCACCCAUGUACUGGGUUUAGUUUCAUCGUUUGAAGGAUAUACUCCGUUAGUUGUCGUAGAAGGUCACAGUUUGG [JR_ExcNG3_Sub008] (Eterna round: R96, puzzle: Exclusion NG 3) | – | – | – | 457 | 407 | 517
25 | ACUUAUUGAGGAUAUACAUAAAUUUACAUGAGGAUCACCCAUGUUCUUCUAUGUAUAUAUGUAGAAGGCAGAAGAU [Mat - Exclusion 5 - JL Mod - D32] (Eterna round: R97, puzzle: Exclusion 5) | – | – | – | 29.2 | – | 19.3
26 | GGUCAUCAAGUCAGGAUAUCGUCUGAUCAAUCAGGCGAGAAGGGACAUGAGGAUCACCCAUGUCGACUCAUCAG [Ex4 #7] (Eterna round: R97, puzzle: Brourd's mod of Exclusion 4) | – | – | – | 85.3 | – | 19.4
27 | GCUGGUCGAGGAUAUACAUGAGGAUCACCCAUGUAGAUCAACCAGCUUCGGCUGGAAUGUAGAAGGCGACCAGC [E3/5-A4] (Eterna round: R97, puzzle: Exclusion 3) | – | – | – | 117 | – | 19.5
28 | GGUUAACAUGAGGAUCACCCAUGUGAGGAUAUGUUCAGGAUGAUAAAUAGAAGAGAUAAUAGAAGGCACUUUGG [Bubbles5] (Eterna round: R97, puzzle: Exclusion 1) | – | – | – | 57.6 | – | 39.9
29 | AAUGACUGAGGAUAUUGUACUGCUGACAUGAGGAUCACCCAUGUAUGCUAACUCGGCCGUCGAGAAGGCAGUCAUG [BotMod 24 - Jieux - Exclusion 5] (Eterna round: R97, puzzle: Exclusion 5) | – | – | – | 18.5 | – | 28
30 | UUUACAAGCUAAAGAUCCCACAUGAGGAUCACCCAUGUUCCUGGCCGUGAGGCUAGGUAAACUUUUGCUCGUCUUAU [JL TOV1 3.67] (Eterna round: R97, puzzle: Sensor, turn-off variant 1) | – | – | – | 252 | – | 322
31 | GGUGGACAUGAGGAUCACCCAUGUGAGGAUAUCGGCCGGUGCGUGGUGGCUGGCGUCUCGAGAAGGCACAUAGU [Exclusion 1 V68] (puzzle: Exclusion 1) | – | 74.9 | – | – | – | –
32 | AGUACUAACACGGAAGUGUUAGUACAAUAAGCUUGUGAAACAUGAGGAUCACCCAUGUCCUCAUAAGCUCGUCUUAU [salish99_TOv2_r3_026] (puzzle: Sensor v3, turn-off variant 2) | 11.1 | 315 | 18.1 | – | – | –
33 | GUUUGACAUGAGGAUCACCCAUGUAAGGAUAUACGAGUAGAUACUAGAUAGUUAGUAUGUAGAAGGUACGUGUU [EX1 #64] (Eterna round: R97, puzzle: Exclusion 1) | – | – | – | 34.6 | – | 43.5
